The values that follow come from patent US20260116991A1 (HAINAN SIMCERE ZAIMING PHARMACEUTICAL, published 2026).

The target in experiment [1] is T1, murine GPC3-His protein (Sino Biological, Cat. No. 50989-M08B) (murine, UniProt Q8CFZ4 25-558).
T1 construct: Bought protein; also called murine GPC3 protein; mouse GPC3-his protein; not shown: His tag
As to the kind of experiment: ELISA, coated antigen.

The target in experiment [2] is T2, polypeptide GC3pep (human).
T2 construct: also called membrane proximal polypeptide GC3pep
T2 peptide: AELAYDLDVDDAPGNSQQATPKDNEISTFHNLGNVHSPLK
As to the kind of experiment: ELISA, GC3pep coated, antibody 10 nM.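 Also: antibody bound to the coated peptide for 2 h at 37 °C, detected through an HRP-conjugated secondary antibody with TMB colour development stopped by acid.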 In general terms: ELISA stands for enzyme-linked immunosorbent assay.

Experiment [3] concerns the target T2, polypeptide GC3pep. As to the kind of experiment: ELISA, GC3pep coated, antibody 100 nM.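 Also: detection with an HRP-conjugated secondary antibody and TMB substrate, color reaction stopped with HCl before absorbance reading.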
Experiment [4] concerns the target T2, polypeptide GC3pep. As to the kind of experiment: ELISA, GC3pep coated, antibody 1 nM.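 Also: bound antibody detected with an HRP-conjugated secondary antibody and TMB substrate, reaction stopped with HCl, after 2 h binding at 37 °C.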
In experiment [5] the target is T2, polypeptide GC3pep. As to the kind of experiment: ELISA, GC3pep coated, antibody 0.01 nM.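 Also: bound antibody detected with an HRP-conjugated secondary antibody and TMB substrate, color reaction stopped with HCl before reading absorbance.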
For experiment [6], the target named is T2, polypeptide GC3pep. Description: ELISA, GC3pep coated, antibody 0.1 nM.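 Also: antibody allowed to bind the coated plate 2 h at 37 °C, then detected via HRP-conjugated secondary antibody and TMB development for 10 min, stopped with HCl.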
In experiment [7] the target is T2, polypeptide GC3pep. Description: ELISA, GC3pep coated, antibody 0.0001 nM.
Experiment [8] deals with T2, polypeptide GC3pep. As to the kind of experiment: ELISA, GC3pep coated, antibody 0.001 nM.

T1 sequence (Q8CFZ4 25-558 limits assumed): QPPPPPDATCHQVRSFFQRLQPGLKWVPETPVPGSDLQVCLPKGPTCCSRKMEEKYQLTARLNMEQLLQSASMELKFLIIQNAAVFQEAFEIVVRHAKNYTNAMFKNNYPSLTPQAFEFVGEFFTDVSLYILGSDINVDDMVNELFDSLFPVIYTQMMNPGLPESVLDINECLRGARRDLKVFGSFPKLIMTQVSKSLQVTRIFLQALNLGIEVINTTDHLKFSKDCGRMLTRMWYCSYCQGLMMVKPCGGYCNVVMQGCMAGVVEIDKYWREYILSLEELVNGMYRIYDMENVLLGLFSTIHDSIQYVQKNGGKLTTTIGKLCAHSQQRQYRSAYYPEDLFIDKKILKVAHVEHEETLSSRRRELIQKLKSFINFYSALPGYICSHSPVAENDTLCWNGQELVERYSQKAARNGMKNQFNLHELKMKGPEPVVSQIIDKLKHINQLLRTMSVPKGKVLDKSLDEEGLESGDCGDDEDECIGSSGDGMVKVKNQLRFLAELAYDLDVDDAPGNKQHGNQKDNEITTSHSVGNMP

B1: hAb005LH3L1b (antibody, human IgG1, V domains shown)
VH: EVQLVQSGAEVKKPGASVKVSCKASGYTFTDYEMHWVRQAPGQGLEWIGAIDPETGNTAYIQKFKGRATLTTDKSTSTAYMELRSLRSDDTAVYYCTRFYSYSHWGQGTTVTVSS
VL: DIVMTQTPLSLPVTPGEPASISCRSSQSLVHSNRNTYLHWYLQKPGQSPQLLIYKVSNRFSGVPDRFSGSGSGTDFTLKISRVEAEDVGVYYCSQNTHVPPTFGGGTKVEIK
notes: Humanized F3.54.12
For the molecule B1, the binding result in experiment [1] is “no binding”.

B2: hAb007LH2L1 (antibody, human IgG1, V domains shown)
VH: EVQLVQSGAEVKKPGSSVKVSCKASGYTFTDYEMHWVRQAPGQGLEWMGTIDPETGNTAYNQKFKGRVTITADKSTSTAYMELSSLRSEDTAVYYCTRPYSLTYWGQGTLVTVSS
VL: DIVMTQTPLSLPVTPGEPASISCRSSQSFVHSNGDTYLQWYLQKPGQSPQLLIYKVSNRFSGVPDRFSGSGSGTDFTLKISRVEAEDVGVYYCFQGSHVPYTFGQGTKLEIK
notes: Humanized F3.81.19
Regarding B2, the binding result in experiment [1] was “no binding”.

B3: hAb006LH1L1a (antibody, human IgG1, V domains shown)
VH: EVQLVQSGAEVKKPGSSVKVSCKASGYTFSDYEIHWVRQAPGQGLEWMGAIDPKTGNTAYNQKFMGRVTITADKSTSTAYMELSSLRSEDTAVYYCTRYFSFAYWGQGTLVTVSS
VL: DIVMTQTPLSLPVTPGEPASISCRSSQTFVHSDGNTYLQWYLQKPGQSPQLLIYKVSNRFSGVPDRFSGSGSGTDFTLKISRVEAEDVGVYYCFQGSHVPYTFGQGTKLEIK
notes: Humanized F3.38.7
For the molecule B3, the binding result in experiment [1] is reported as “no binding”.

B4: hAb006LH1L1b (antibody, human IgG1, V domains shown)
VH: EVQLVQSGAEVKKPGSSVKVSCKASGYTFSDYEIHWVRQAPGQGLEWMGAIDPKTGNTAYNQKFMGRVTITADKSTSTAYMELSSLRSEDTAVYYCTRYFSFAYWGQGTLVTVSS
VL: DIVMTQTPLSLPVTPGEPASISCRSSQTFVHSNANTYLQWYLQKPGQSPQLLIYKVSNRFSGVPDRFSGSGSGTDFTLKISRVEAEDVGVYYCFQGSHVPYTFGQGTKLEIK
notes: Humanized F3.38.7
As to B4, the binding result in experiment [1] was “no binding”.

B5: hAb006LH2L1 (antibody, human IgG1, V domains shown)
VH: EVQLVQSGAEVKKPGSSVKVSCKASGYTFTDYEIHWVRQAPGQGLEWMGAIDPKTGNTAYNQKFMGRVTITADKSTSTAYMELSSLRSEDTAVYYCTRYFSFAYWGQGTLVTVSS
VL: DIVMTQTPLSLPVTPGEPASISCRSSQTFVHSNGNTYLQWYLQKPGQSPQLLIYKVSNRFSGVPDRFSGSGSGTDFTLKISRVEAEDVGVYYCFQGSHVPYTFGQGTKLEIK
notes: Humanized F3.38.7
In the case of B5, the binding result in experiment [1] was “no binding”.

B6: hAb006LH1L1 (antibody, human IgG1, V domains shown)
VH: EVQLVQSGAEVKKPGSSVKVSCKASGYTFSDYEIHWVRQAPGQGLEWMGAIDPKTGNTAYNQKFMGRVTITADKSTSTAYMELSSLRSEDTAVYYCTRYFSFAYWGQGTLVTVSS
VL: DIVMTQTPLSLPVTPGEPASISCRSSQTFVHSNGNTYLQWYLQKPGQSPQLLIYKVSNRFSGVPDRFSGSGSGTDFTLKISRVEAEDVGVYYCFQGSHVPYTFGQGTKLEIK
notes: Humanized F3.38.7
B6: the binding result in experiment [1] is on record as “no binding”.

B7: hAb006LH2L1a (antibody, human IgG1, V domains shown)
VH: EVQLVQSGAEVKKPGSSVKVSCKASGYTFTDYEIHWVRQAPGQGLEWMGAIDPKTGNTAYNQKFMGRVTITADKSTSTAYMELSSLRSEDTAVYYCTRYFSFAYWGQGTLVTVSS
VL: DIVMTQTPLSLPVTPGEPASISCRSSQTFVHSDGNTYLQWYLQKPGQSPQLLIYKVSNRFSGVPDRFSGSGSGTDFTLKISRVEAEDVGVYYCFQGSHVPYTFGQGTKLEIK
notes: Humanized F3.38.7
As for B7, the binding result in experiment [1] is given as “no binding”.

B8: F3.54.12 (antibody, human IgG1, kappa, V domains shown)
VH: QVQLQQSGAELVRPGASVKLSCKASGYTFTDYEMHWVKQTPVHGLEWIGAIDPETGNTAYIQKFKGKATLTTDKSSSTAYMELRSLTSEDSAVYYCTRFYSYSHWGQGTTLTVSS
VL: DVVMTQTPLSLPVSLGDQASISCRSSQSLVHSNGNTYLHWYLQKPGQSPKLLIYKVSNRFSGVPDRFSGSSSGTDFTLKISRVEAEDLGVYFCSQNTHVPPTFGGGTKLEIKR
notes: human-murine chimeric antibody
For the molecule B8, the OD450 nm in experiment [2] amounted to 2.8 OD450 nm; in experiment [3] it was 3.03 OD450 nm; in experiment [4], 2.64 OD450 nm; in experiment [5], 0.33 OD450 nm; in experiment [6], 1.63 OD450 nm; in experiment [7], 0.07 OD450 nm. In addition, the OD450 nm in experiment [8] is 0.09 OD450 nm.

B9: F2.23.8 human-murine chimeric antibody (antibody, human IgG1, kappa, V domains shown)
VH: QVQLQQSGAELVRPGASVKLSCKASGYTFTDYEMHWVKQTPVHGLEWFGAIDPETGGTAYNQKFRAKATLTADKSSSTAYMELRSLTSEDSAVYYCTRFYSFAYWGQGTLVTVSA
VL: DVVMTQTPLSLPVSLGDQASISCRSSQSLVHSNGNTYLQWYLQKPGQSPKLLIYKVSNRFSGVPDRFSGSGSGTDFTLKITRVEAEDLGVYFCSQSTHVPYTFGSGTKLEIKR
notes: Chimeric
Turning to B9, the binding result in experiment [1] is given as “no binding (tested: 100 nM)”.

B10: F3.81.19 (antibody, human IgG1, kappa, V domains shown)
VH: QVQLQQSGAELVRPGASVKLSCKASGYTFTDYEMHWVKQTPVHGLEWIGTIDPETGNTAYNQKFKGKATLTADKSSSTAYMELRSLTSEDSAVYYCTRPYSLTYWGQGTLVTVSA
VL: DVLLTQTPLSLPVSLGDQASISCRSSQSFVHSNGDTYLQWYLQKPGQSPKLLIYKVSNRFSGVPDRFSGSGSGTDFTLKISRVEAEDLGVYYCFQGSHVPYTFGSGTKLEIKR
notes: as for B8
As to B10, the OD450 nm in experiment [2] is 2.88 OD450 nm; in experiment [3], 2.94 OD450 nm; in experiment [4] it was 1.21 OD450 nm; in experiment [5], 0.05 OD450 nm; in experiment [6] it was 0.19 OD450 nm; in experiment [7], 0.05 OD450 nm. Also, the OD450 nm in experiment [8] stood at 0.05 OD450 nm.

B11: F2.39.2 human-murine chimeric antibody (antibody, human IgG1, kappa, V domains shown)
VH: QVQLQQSGAELVRPGASVKVSCKASGYTFTDYEMHWMKQTPVHGLEWIGANEPETGRSAYDQKFKGKATLTADKSSSTAYMELRSLTSEDSAVYYCTRFYSFAYWGQGTLVTVSA
VL: DVVMTQTPLSLPVSLGDQASISCRSSQGLVHNNGNTYLHWYLQKPGQSPKLLIYKVSNRFSGVPDRFSGSGSGTDFTLKISRVEAEDLGVYFCSQNTHVPPTFGGGTKLEIKR
notes: Chimeric
As for B11, the binding result in experiment [1] was “no binding (tested: 100 nM)”.

B12: F3.81.19 human-murine chimeric antibody (antibody, human IgG1, kappa, V domains shown)
VH: QVQLQQSGAELVRPGASVKLSCKASGYTFTDYEMHWVKQTPVHGLEWIGTIDPETGNTAYNQKFKGKATLTADKSSSTAYMELRSLTSEDSAVYYCTRPYSLTYWGQGTLVTVSA
VL: DVLLTQTPLSLPVSLGDQASISCRSSQSFVHSNGDTYLQWYLQKPGQSPKLLIYKVSNRFSGVPDRFSGSGSGTDFTLKISRVEAEDLGVYYCFQGSHVPYTFGSGTKLEIKR
notes: Chimeric
Regarding B12, the binding result in experiment [1] is recorded as “no binding (tested: 100 nM)”.

B13: F4.21.16 (antibody, human IgG1, kappa, V domains shown)
VH: DVQLQESGPGLVKPSQSLSLTCSVTGYSITSGYYWNWIRQFPGNKLEWMGYISYDVTVNYNPSLKNRISITRDTSKNQFFLKLNSVTTEDTATYYCATITSVASMDHWGQGTSVTVSS
VL: DILMTQTPLSLPVSLGDQASISCRSSQNIVHRNGNTYLEWYLQKPGQSPKLLLYKVSNRFSGVPDRFSGSGSGTDFTLKISRVEAEDLGIYYCFQGSHFPFTFGSGTKLEIKR
notes: as for B8
Consider B13, for which the OD450 nm stood at 0.04 OD450 nm in experiment [2]; 0.08 OD450 nm in experiment [3]; 0.03 OD450 nm in experiment [4]; 0.04 OD450 nm in experiment [5]; 0.03 OD450 nm in experiment [6]; 0.04 OD450 nm in experiment [7]. This molecule gave an OD450 nm in experiment [8] of 0.04 OD450 nm.

B14: F2.154.1 human-murine chimeric antibody (antibody, human IgG1, kappa, V domains shown)
VH: QVQLQQSGAELVRPGASVKLSCKASGYRFTDYEMHWVKQTPVHGLEWIGTIDPETGNTAYTQKFMDKATLTADKSSSTAYMELRSLTSEDSAVYYCTRGYSFTYWGQGTLATVSA
VL: DVLMTQTPLSLPVSLGDQASISCRSSQNIVHSNGNTYLQWYLQKPGQSPKLLIFKVSNRFSGVPDRFSGSGSGTDFTLKISRVEAEDLGVYYCFQGSHVPFTFGTGTKLEIKR
notes: Chimeric
For B14, the binding result in experiment [1] was “no binding (tested: 100 nM)”.

B15: F3.38.7 human-murine chimeric antibody (antibody, human IgG1, kappa, V domains shown)
VH: QVQLQQSGAELVRPGASVKLSCKASGYTFTDYEIHWVKQTPVLGLEWIGAIDPKTGNTAYNQKFMGKATLTADKSSTTAYMDLRSLTSEDSAVYYCTRYFSFAYWGQGTLVTVSA
VL: DVLMTQTPLSLPVSLGDQASISCRSSQTFVHSNGNTYLQWYLQKPGQSPKLLIYKVSNRFSGVPDRFSGSGSGTDFTLKISRVEAEDLGVYYCFQGSHVPYTFGSGTKLEIKR
notes: Chimeric
In the case of B15, the binding result in experiment [1] was “no binding (tested: 100 nM)”.

B16: F4.13.7 (antibody, human IgG1, kappa, V domains shown)
VH: QVQLQQPGAELVKPGASVKLSCKASGYTFTNNWVHWVKQRPGQGLEWTGMIHPDSGSTIYNEKFQSKATLTVDKSSSTAYMQLSSLTSEDSAVYYCARGYYDSSSYYAMDYWGQGTSVTVSS
VL: NIQMTQTTSSLSASLGDRVTISCSASQGIFNYLNWYQQKPDGTVKLLIYYTSSLHSGVPSRFSGSGSGTDYSLTISNLEPEDIATYYCQQYSKLPWTFGGGTKLEIKR
notes: as for B8
Consider B16, for which the OD450 nm in experiment [2] came out at 0.04 OD450 nm; in experiment [3] it was 0.06 OD450 nm; in experiment [4], 0.03 OD450 nm; in experiment [5], 0.04 OD450 nm; in experiment [6] it was 0.03 OD450 nm; in experiment [7] it was 0.05 OD450 nm. This molecule also showed an OD450 nm in experiment [8] of 0.08 OD450 nm.

B17: F4.18.4 (antibody, human IgG1, kappa, V domains shown)
VH: QVQLHQSGAEMAKPGASVNLSCKTSGFTFTDYGISWVKQRTRQGLEWIGDIYPRHINIYYNEKFKDKATLTADRSSSTAYMELRSMTSEDSAVYFCARRGTTGRGALDYWGQGTSLTVSS
VL: DILLTQSPAILSVSPGERVSFSCRASQSIGTSIHWYQQRTNGSPRLLIKYAFESISGIPSRFGGSGSRTDFTLTINSVESEDIADYYCQQTYNWPYTFGGGTKLEIKR
notes: as for B8
Regarding B17, the OD450 nm was 0.03 OD450 nm in experiment [2]; 0.06 OD450 nm in experiment [3]; 0.03 OD450 nm in experiment [4]; 0.04 OD450 nm in experiment [5]; 0.03 OD450 nm in experiment [6]; 0.04 OD450 nm in experiment [7]. In experiment [8], this molecule registered an OD450 nm of 0.04 OD450 nm.
